“Also recorded” adds a separate entry of the source.
Key:
wildtype feline IL-31 = experiment: Indirect ELISA, binding to wildtype feline IL-31
Summary of the method: (§1)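 Wildtype or 15H05-epitope-mutant feline IL-31 coated directly onto plates as capture antigen (50 ng/well). Antibodies diluted in PBST, bound antibody detected with HRP-labelled secondary and TMB for 10 min at RT. Reaction stopped with 0.1 N HCl, then OD read at 450 nm.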

[1] = test system: feline IL-31 15H05 mutant; experiment: Indirect ELISA, binding to feline IL-31 15H05 mutant; conditions: compared with wildtype
Summary of the method: as §1

equine IL-31 = experiment: Biacore binding, single test concentration of antibody, equine IL-31 surface
Protocol: (§2) For the indirect ELISA, binding (ELISA OD) to wildtype feline IL-31 and a feline IL-31 15H05 mutant which had mutations in the monoclonal antibody 15H05 epitope region was assessed. To confirm binding, biacore analysis was performed using canine, feline, equine, human, the feline 15H05 mutant, and feline 11E12 mutant IL-31 proteins as surfaces and a single test concentration of antibody. The feline IL-31 11E12 mutant had mutations in the monoclonal antibody 11E12 epitope region.
(§3) For the indirect ELISA method, antibody binding to wildtype and feline IL-31 15H05 mutant proteins was assessed. […] In comparison, the 11E12 antibody bound to the wild-type feline IL-31 and its binding was not impacted by the mutations in the 15H05 epitope region as evidenced by the data in FIG. 4. To confirm binding, biacore analysis was performed using canine, feline, equine, human, feline 15H05 mutant, and feline 11E12 mutant IL-31 proteins as surfaces and a single test concentration of antibody. Similar to ELISA observations, all antibodies tested bound to wildtype feline IL-31. In agreement with the data described above in this section, mouse antibodies 11 E12 and 15H05 both bound to canine and feline IL-31 surfaces. […] From this group of nine fully canine antibodies, only ZIL1 and ZIL9 cross-reacted with equine IL-31. Of note, antibody 15H05 was the only one of all assayed herein that bound to canine, feline, and equine IL-31 indicating some level of epitope conservation across the three species. In contrast, none of the antibodies described herein bound to human IL-31. Additional biacore surfaces were used to verify ELISA observations showing differential binding of antibodies to wildtype feline IL-31 and two proteins with mutations in the 15H05 (15H05 mutant) or 11 E12 (11E12 mutant) epitopes. […] Differing results can be attributed to differences in the two assay methodologies.

[2] = test system: feline 15H05 mutant IL-31; experiment: Biacore binding, single test concentration of antibody, feline 15H05 mutant IL-31 surface
Protocol: as §2, §3

[3] = test system: feline 11E12 mutant IL-31; experiment: Biacore binding, single test concentration of antibody, feline 11E12 mutant IL-31 surface
Protocol: as §2, §3

feline IL-31 [4] = experiment: Affinity of anti-IL-31 antibodies by surface plasmon resonance (Biacore), feline IL-31 surface; type: binding; conditions: IL-31 conjugated to the surface (FIG. 2)
Summary of the method: (§4)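 IL-31 amine-coupled (NHS/EDC) at 5 μg/mL directly onto the SPR chip, quenched with ethanolamine; candidate mAbs flowed over as analyte. KD from 1:1 model fits; values below 1×10^−11 M are under the instrument's lower quantitation limit.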
Target sequence in this assay (as listed by the source): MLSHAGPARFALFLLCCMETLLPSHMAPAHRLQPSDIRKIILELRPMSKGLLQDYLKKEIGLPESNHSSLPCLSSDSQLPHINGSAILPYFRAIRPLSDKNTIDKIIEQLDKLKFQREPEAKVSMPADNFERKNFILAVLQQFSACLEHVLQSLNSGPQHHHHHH

canine IL-31 [5] = experiment: Affinity of anti-IL-31 antibodies by surface plasmon resonance (Biacore), canine IL-31 surface; type: binding; conditions: IL-31 conjugated to the surface (FIG. 2)
Summary of the method: as §4

feline IL-31 [6] = experiment: Inhibition of feline IL-31 induced pSTAT3 signaling in feline FCWF4 macrophage-like cells; type: cell-based; conditions: for potency (IC50) against feline IL-31 in feline FCWF4 cells: 0.2 μg/mL feline IL-31, pSTAT3, FCWF4 cells (FIG. 3)
Protocol: (§5) To identify candidates with inhibitory activity, antibodies were assessed for their ability to affect IL-31-mediated STAT3 phosphorylation in either a canine or feline cell-based assay. STAT3 phosphorylation was determined in canine DH-82 (ATCC® CRL-10389™) or feline FCWF4 macrophage-like cells (ATCC CRL-2787). DH82 and FCWF4 cells were primed with canine interferon gamma (R&D Systems, Minneapolis, Minn.) at 10 ng/mL for 24 hours or feline interferon gamma (R&D Systems, Minneapolis, Minn.) at 125 ng/mL for 96 hours, respectively, to increase receptor expression. Both cell types were serum starved for 2 hours prior to IL-31 and mAb treatment. Using two independent methods, all candidate mAbs were evaluated for their ability to inhibit either 1 μg/mL canine or 0.2 μg/mL feline IL-31 induced STAT3 phosphorylation. […] To ensure complex formation, a one hour co-incubation of mAb and IL-31 cytokine prior to cell stimulation was completed. IL-31 cell stimulation was carried out for five minutes. STAT3 phosphorylation was measured using AlphaLISA SureFire ULTRA™ technology (Perkin Elmer, Waltham, Mass.). In the case where antibody concentration and purity are unknown, hybridoma supernatants were qualitatively measured for their ability to inhibit STAT3 phosphorylation following a 1 hour co-incubation with […] IL-31. The potency of individual monoclonal antibodies defined by their ability to inhibit IL-31 mediated STAT3 phosphorylation in these assays was considered the key selection criteria for further advancement of select antibodies. The term potency refers to the IC50 value calculated from these assays and is the concentration of the antibody where signaling induced by IL-31 is reduced to one half its maximal value.

feline IL-31 [7] = experiment: Inhibition of feline IL-31 induced pSTAT3 signaling in canine DH-82 cells; type: cell-based; conditions: feline IL-31, pSTAT3, canine DH82 cells (FIG. 3)
Protocol: as §5
Target sequence in this assay (as listed by the source): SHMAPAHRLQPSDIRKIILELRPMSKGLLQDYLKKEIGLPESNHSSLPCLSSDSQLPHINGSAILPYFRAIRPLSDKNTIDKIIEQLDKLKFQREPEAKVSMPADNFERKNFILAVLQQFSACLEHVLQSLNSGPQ

feline IL-31 [8] = experiment: IL-31 induced pruritus model in cats, antibody pre-bound to feline IL-31; type: in vivo, cat
Protocol: To test the preliminary efficacy of mouse: feline 11E12 chimera, mouse: feline 15H05 chimera, and felinized 11 E12 (Feline 11E12 1.1), an IL-31 induced pruritus model in cats was developed. Following an intravenous dose of 0.5 μg/kg feline IL-31 (SEQ ID NO: 159; Feline_IL-31_E_coli), the corresponding nucleotide sequence for which is (SEQ ID NO: 160; Feline_IL-31_E_coli), cats will portray transient pruritic behavior that includes (but is not limited to) licking, chewing, scratching, and head or body shaking. Rubbing up against the cage was not considered a pruritic activity. Pruritic observations take place by a trained investigator for 30 minutes prior to administration of the IL-31 protein and for 1 hour following. For this study, a baseline challenge with feline IL-31 was performed up to 1 month prior to dosing with antibody. On day zero, a 0.5 mg/kg antibody dose was combined with 0.5 μg/kg of feline IL-31 at room temperature for 60 minutes prior to injecting the pre-bound complex into each animal. A “no mAb” control was included for a control. The dose of mAb represents a gross molar excess of antibody to cytokine. Pruritic activity was monitored as described on days 0, 7, and 21.
Target sequence in this assay (as listed by the source): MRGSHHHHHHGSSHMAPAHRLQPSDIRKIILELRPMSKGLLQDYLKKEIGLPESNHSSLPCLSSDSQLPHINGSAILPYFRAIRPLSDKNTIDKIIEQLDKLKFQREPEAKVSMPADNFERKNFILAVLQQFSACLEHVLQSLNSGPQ

canine IL-31 [9] = molecular target: T1, canine IL-31 (Canis lupus familiaris, UniProt A0A8I3S3D1); experiment: Inhibition of canine IL-31 induced pSTAT3 signaling in canine DH-82 and feline FCWF4 cells; type: cell-based; conditions: canine IL-31; canine and feline cell types, cell type of the values not specified
T1 construct: made in house; host or cells: CHO cells (CHROMOS ACE system)
T1 sequence (A0A8I3S3D1 24-159): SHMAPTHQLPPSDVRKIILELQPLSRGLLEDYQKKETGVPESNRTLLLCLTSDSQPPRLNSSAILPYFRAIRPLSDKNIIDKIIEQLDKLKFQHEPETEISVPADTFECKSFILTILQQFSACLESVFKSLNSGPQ
Protocol: as §5

feline IL-31 15H05 mutant, sequence (as listed by the source, change not shown): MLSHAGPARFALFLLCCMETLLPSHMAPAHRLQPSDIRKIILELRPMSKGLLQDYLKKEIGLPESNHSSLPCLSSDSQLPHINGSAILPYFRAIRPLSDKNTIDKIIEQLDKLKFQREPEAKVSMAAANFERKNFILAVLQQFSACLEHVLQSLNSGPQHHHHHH
canine IL-31, sequence (as listed by the source): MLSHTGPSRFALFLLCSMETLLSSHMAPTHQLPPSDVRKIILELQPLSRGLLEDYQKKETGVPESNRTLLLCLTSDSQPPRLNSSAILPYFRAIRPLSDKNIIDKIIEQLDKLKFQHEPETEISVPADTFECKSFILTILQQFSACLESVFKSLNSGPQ
equine IL-31, sequence (as listed by the source): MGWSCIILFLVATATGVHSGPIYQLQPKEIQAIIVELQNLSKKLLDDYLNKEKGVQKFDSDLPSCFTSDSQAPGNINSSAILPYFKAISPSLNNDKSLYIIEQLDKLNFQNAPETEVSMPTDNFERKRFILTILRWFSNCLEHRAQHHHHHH
feline 11E12 mutant IL-31, sequence (as listed by the source, change not shown): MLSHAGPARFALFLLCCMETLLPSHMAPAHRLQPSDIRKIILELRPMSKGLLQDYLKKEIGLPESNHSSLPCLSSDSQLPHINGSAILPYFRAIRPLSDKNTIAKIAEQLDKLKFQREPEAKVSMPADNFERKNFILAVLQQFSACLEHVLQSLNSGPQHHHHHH

B1: ZIL1: fully canine anti IL-31 antibody, VH SEQ ID NO: 75, VL SEQ ID NO: 77 (antibody, listed as Canis familiaris, V domains shown)
VH: EVQLVESGGDLVKPGGSLRLSCVASGFTFSSYGMSWVRQAPGKGLQWVAHINSGGSSTYYADAVKGRFTISRDNAKNTLYLQMNSLRAEDTAVYYCVEVYTTLAAFWTDNFDYWGQGTLVTVSS
VL: QSVLTQPTSVSGSLGQRVTISCSGSTNNIGILAATWYQQLPGKAPKVLVYSDGNRPSGVPDRFSGSKSGNSATLTITGLQAEDEADYYCQSFDTTLDAYVFGSGTQLTVL
binding to wildtype feline IL-31 (ELISA) (wildtype feline IL-31): capable of binding; also recorded: retained binding
binding to feline IL-31 15H05 mutant (ELISA) [1]: binding was impacted; also recorded: decreased
binding to equine IL-31 (Biacore) (equine IL-31): cross-reacted
binding to feline 15H05 mutant IL-31 (Biacore) [2]: decreased
binding to feline 11E12 mutant IL-31 (Biacore) [3]: partially effected

B2: Feline 11E12 1.1: felinized 11E12, FEL_11E12_VH1 paired with FEL_11E12_VL1 (antibody, V domains shown)
VH: QVLLVQSGAEVKKPGASVKIFCKASGYSFTYYDINWLRQAPEQGLEWMGWIFPGDGGTKYNETFKGRLTLTADTSTNTVYMELSSLRSADTAMYYCARGGTSVIRDAMDYWGQGALVTVSS
VL: EIQMTQSPSSLSASPGDRVTITCRASESVDNYGISFMHWYQQKPGKVPKLLIYRASNLESGVPSRFSGSGSGTDFTLTISSLEPEDAATYYCQQSNKDPLTFGQGT
affinity (KD) to feline IL-31 (feline IL-31 [4]): loss of affinity
affinity (KD) to canine IL-31 (canine IL-31 [5]): loss of affinity
potency (IC50) against feline IL-31 in feline FCWF4 cells (feline IL-31 [6]): loss of potency
potency (IC50) against feline IL-31 in feline FCWF4 cells (feline IL-31 [6]; listed as Felinized 11E12 1.1): approximately a two-fold decrease in potency
potency (IC50) against feline IL-31 in canine DH82 cells (feline IL-31 [7]): loss of potency
pruritus scores compared to placebo control (feline IL-31 [8]; 0.5 mg/kg antibody pre-bound with 0.5 μg/kg feline IL-31, days 0, 7, 21, 0.5 mg/kg): did not reduce pruritus at day zero
pruritus scores compared to placebo control (feline IL-31 [8]; 0.5 mg/kg antibody pre-bound with 0.5 μg/kg feline IL-31, days 0, 7, 21, listed as feline 11E12 1.1, 0.5 mg/kg): lack of efficacy

B3: mouse: feline 15H05 chimera: mouse 15H05 variable regions on feline IgG constant regions (antibody)
heavy: QVQLQQSAAELARPGASVKMSCKTSGYTFTSYTIHWIKQRPGQGLEWIGNINPTSGYTENNQRFKDKTTLTVDRSSNTAYLQLHSLTSEDSAVYFCARWGFKYDGEWSFDVWGAGTTVTVSSASTTAPSVFPLAPSCGTTSGATVALACLVLGYFPEPVTVSWNSGALTSGVHTFPAVLQASGLYSLSSMVTVPSSRWLSDTFTCNVAHPPSNTKVDKTVRKTDHPPGPKPCDCPKCPPPEAAGAPSIFIFPPKPKDTLSISRTPEVTCLVVDLGPDDSDVQITWFVDNTQVYTAKTSPREEQFNSTYRVVSVLPILHQDWLKGKEFKCKVNSKSLPSPIERTISKAKGQPHEPQVYVLPPAQEELSRNKVSVTCLIKSFHPPDIAVEWEITGQPEPENNYRTTPPQLDSDGTYFVYSKLSVDRSHWQRGNTYTCSVSHEALHSHHTQKSLTQSPGK
light: DIQMNQSPSSLSASLGDTITVTCRASQGISIWLSWYQQKPGNIPKVLINKASNLHIGVPPRFSGSGSGTHFTLTITSLQPEDIATYYCLQSQTYPLTFGGGTKLEINRSDAQPSVFLFQPSLDELHTGSASIVCILNDFYPKEVNVKWKVDGVVQNKGIQESTTEQNSKDSTYSLSSTLTMSSTEYQSHEKFSCEVTHKSLASTLVKSFQRSECQRE
affinity (KD) to feline IL-31 (feline IL-31 [4]): lost some affinity
affinity (KD) to canine IL-31 (canine IL-31 [5]): lost some affinity
fold increased IC50 relative to mouse: feline 11E12 chimera (feline IL-31 [6]; feline IL-31 induced pSTAT3 signaling in feline FCWF4 cells): approximately 2 fold
IC50 against canine IL-31 (canine IL-31 [9]): 28.61 µg/mL
pruritus scores compared to placebo control (feline IL-31 [8]; 0.5 mg/kg antibody pre-bound with 0.5 μg/kg feline IL-31, days 0, 7, 21): significant improvement (p<0.05)

B4: ZIL9: fully canine anti IL-31 antibody, VH SEQ ID NO: 83, VL SEQ ID NO: 85 (antibody, listed as Canis familiaris, V domains shown)
VH: EVQLVESGGDLVKPPGSLRLSCVASGFTFSSYDMTWVRQAPGKGLQWVADVNSGGTGTAYAVAVKGRFTISRDNAKKTLYLQMNSLRAEDTAVYYCAKLGVRDGLSVWGQGTLVTVSS
VL: SSVLTQPPSVSVSLGQTATISCSGESLNEYYTQWFQQKAGQAPVLVIYRDTERPSGIPDRFSGSSSGNTHTLTISGARAEDEADYYCESAVDTGTLVFGGGTHLAVL
binding to equine IL-31 (Biacore) (equine IL-31): cross-reacted
